Target: PLY R208A (Streptococcus pneumoniae) (UniProt P0C2J9)

PLY R208A (from UniProt P0C2J9 2-470) (natural protein)
cytolytic activity on human red blood cells, percent of native PLY activity (% native PLY activity): 2.5
